Measurements taken from patent publication US20250042994A1 (HAINAN SIMCERE ZAIMING PHARMACEUTICAL, published 2025).

T1: Human CD19-his protein (human, UniProt P15391 20-291)
T1 construct: bought protein; also called recombinant human CD19-His; CD19 full-length protein; not shown: His tag
T1 sequence (looked up): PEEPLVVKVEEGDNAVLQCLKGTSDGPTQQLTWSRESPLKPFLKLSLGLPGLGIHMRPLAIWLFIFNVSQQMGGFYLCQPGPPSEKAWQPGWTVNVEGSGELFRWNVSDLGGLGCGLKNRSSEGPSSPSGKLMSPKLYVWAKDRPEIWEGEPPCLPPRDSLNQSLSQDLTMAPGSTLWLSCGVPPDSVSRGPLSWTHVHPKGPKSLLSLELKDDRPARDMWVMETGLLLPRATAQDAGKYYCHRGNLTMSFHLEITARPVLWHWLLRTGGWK

T2: human CD19 exon1-3-His tag protein (human, UniProt P15391 20-186, limits assumed)
T2 construct: membrane-distal part of the extracellular region, made in HEK293E cells; not shown: His tag
T2 sequence (looked up): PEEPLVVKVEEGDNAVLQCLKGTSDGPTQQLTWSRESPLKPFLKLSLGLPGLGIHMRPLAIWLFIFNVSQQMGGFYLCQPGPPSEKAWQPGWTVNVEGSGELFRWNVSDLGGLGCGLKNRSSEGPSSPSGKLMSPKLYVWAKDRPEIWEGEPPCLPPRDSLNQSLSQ

T3: human CD19 on Raji cells (human, UniProt P15391 20-556)
T3 construct: whole, on cells
T3 sequence (looked up): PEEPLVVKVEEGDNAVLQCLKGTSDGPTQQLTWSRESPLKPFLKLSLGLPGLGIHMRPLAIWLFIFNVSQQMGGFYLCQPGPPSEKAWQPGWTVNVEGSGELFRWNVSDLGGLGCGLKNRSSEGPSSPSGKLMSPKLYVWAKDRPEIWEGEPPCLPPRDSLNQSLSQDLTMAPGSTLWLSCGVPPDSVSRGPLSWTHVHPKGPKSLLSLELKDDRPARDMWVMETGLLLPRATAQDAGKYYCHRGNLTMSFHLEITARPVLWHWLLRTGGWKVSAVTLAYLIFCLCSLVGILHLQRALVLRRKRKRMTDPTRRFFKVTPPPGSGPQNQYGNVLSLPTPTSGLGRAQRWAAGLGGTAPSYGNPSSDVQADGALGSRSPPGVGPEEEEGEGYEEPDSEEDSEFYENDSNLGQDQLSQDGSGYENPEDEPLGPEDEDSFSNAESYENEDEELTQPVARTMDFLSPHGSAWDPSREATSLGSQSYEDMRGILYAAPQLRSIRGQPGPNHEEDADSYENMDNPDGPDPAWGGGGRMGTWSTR

T4: human CD19 on CHO-K1-human CD19 cells (human, UniProt P15391 20-556)
T4 construct: whole, on cells; also called CHO-K1-human CD19-2C8
T4 sequence (looked up): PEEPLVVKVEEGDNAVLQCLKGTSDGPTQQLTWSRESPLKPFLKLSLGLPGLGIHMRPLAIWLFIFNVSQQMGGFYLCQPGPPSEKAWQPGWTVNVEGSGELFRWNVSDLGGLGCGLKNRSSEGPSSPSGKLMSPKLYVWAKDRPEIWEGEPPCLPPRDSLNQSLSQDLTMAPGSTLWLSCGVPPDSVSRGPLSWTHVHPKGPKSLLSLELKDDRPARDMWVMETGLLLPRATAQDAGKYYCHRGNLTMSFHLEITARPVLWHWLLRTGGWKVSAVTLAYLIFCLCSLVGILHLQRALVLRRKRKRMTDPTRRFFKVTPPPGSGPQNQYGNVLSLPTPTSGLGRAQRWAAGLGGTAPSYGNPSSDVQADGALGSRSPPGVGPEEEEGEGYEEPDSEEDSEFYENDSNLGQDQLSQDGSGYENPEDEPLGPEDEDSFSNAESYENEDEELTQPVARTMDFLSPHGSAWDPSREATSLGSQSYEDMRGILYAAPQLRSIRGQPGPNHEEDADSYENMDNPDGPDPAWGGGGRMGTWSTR

B1: F3.121.4-L1H2 (antibody, mouse IgG1, kappa, V domains shown)
VH: EVQLVQSGAEVKKPGASVKVSCKASGYTFTNYWMHWVRQAPGQGLEWMGEIDPSDNYANYNQEFQGRVTITVDKSASTAYMELSSLRSEDTAVYYCARHDGYFGALDYWGQGTTVTVSS
VL: EIVLTQSPATLSLSPGERATLSCSASSSISSNYLHWYQQKPGQAPRFLIYRTSNLASGIPARFSGSGSGTDFTLTISSLEPEDFAVYYCQQASSIPRMFTFGQGTKLEIKR
notes: humanized antibody of F3.121.4, VL1+VH2, murine IgG1 constant regions
B2: F3.121.4-L1H3 (antibody, mouse IgG1, kappa)
heavy: EVQLVQSGAEVKKPGASVKVSCKASGYTFTNYWMHWVRQRPGQGLEWMGEIDPSDNYANYNQEFQGRVTITVDKSASTAYMELSSLRSEDTAVYYCARHDGYFGALDYWGQGTTVTVSSAKTTPPSVYPLAPGSAAQTNSMVTLGCLVKGYFPEPVTVTWNSGSLSSGVHTFPAVLQSDLYTLSSSVTVPSSTWPSETVTCNVAHPASSTKVDKKIVPRDCGCKPCICTVPEVSSVFIFPPKPKDVLTITLTPKVTCVVVDISKDDPEVQFSWFVDDVEVHTAQTQPREEQFNSTFRSVSELPIMHQDWLNGKEFKCRVNSAAFPAPIEKTISKTKGRPKAPQVYTIPPPKEQMAKDKVSLTCMITDFFPEDITVEWQWNGQPAENYKNTQPIMDTDGSYFVYSKLNVQKSNWEAGNTFTCSVLHEGLHNHHTEKSLSHSPGK
light: EIVLTQSPATLSLSPGERATLSCSASSSISSNYLHWYQQKPGQAPRFLIYRTSNLASGIPARFSGSGSGTDFTLTISSLEPEDFAVYYCQQASSIPRMFTFGQGTKLEIKRADAAPTVSIFPPSSEQLTSGGASVVCFLNNFYPKDINVKWKIDGSERQNGVLNSWTDQDSKDSTYSMSSTLTLTKDEYERHNSYTCEATHKTSTSPIVKSFNRNEC
notes: humanized antibody of F3.121.4, VL1+VH3, murine IgG1 constant regions

Tests used:
[1] = target: T1, Human CD19-his protein; experiment: SPR Biacore, method of example 7.1, human CD19-His
Procedure: A sample buffer and a running buffer were HBS-EP+ (10 mM HEPES, 150 mM NaCl, 3 mM EDTA and 0.05% surfactant P20) (GE Healthcare; BR-1006-69). The flow-through cell was set to 25° C. The sample block was set to 16° C. Both were pretreated with the running buffer. In each cycle, an antibody to be detected was first captured with a Protein A chip, and then a single concentration of CD19 antigen protein was injected. The binding and dissociation processes of the antibody and the antigen protein were recorded, and finally Glycine pH 1.5 (GE Healthcare; BR-1003-54) was used to complete chip regeneration. The binding was measured by injecting different concentrations of recombinant human CD19-His proteins in a solution for 240 s with a flow rate of 30 μl/min. The concentration started from 200 nM (see the detailed results for the actual concentration in the test) and was diluted at 1:1, making a total of 5 concentrations. The dissociation phase was monitored for up to 600 s and was triggered by switching from sample solution to running buffer. The surface was regenerated by washing with a 10 mM glycine solution (pH 1.5) for 30 s at a flow rate of 30 μl/min. Bulk refractive index difference was corrected by subtracting the response obtained from the goat anti-human Fc surface. Blank injection was also subtracted (=double reference). For calculation of apparent KD and other kinetic parameters, Langmuir 1:1 model was used.
SPR (biacore) detection and data analysis were performed according to the method in example 7.1.

[2] = target: T1, Human CD19-his protein; experiment: ELISA, coated human CD19-His
Procedure: Human CD19-his protein (purchased from ACROBiosystems, catalog number: CD9-H52H2) was diluted with PBS to a final concentration of 4 μg/mL, and then added to a 96-well ELISA plate at 100 μl/well. The plate was sealed with a plastic film and incubated overnight at 4° C., the plate was washed 2 times with PBS the next day, and then a blocking solution [PBS+2% (w/w) BSA] was added for blocking at room temperature for 2 h. The blocking solution was poured off, and 100 nM gradiently diluted CD19 chimeric antibody or control antibody was added at 50 μl/well. After incubation at 37° C. for 2 h, the plate was washed 3 times with PBS. […] TMB substrate was added at 50 μl/well, and incubated at room temperature for 10 min, and then a stop solution (1.0 N HCl) was added at 50 μl/well. The OD450 nm values were read by an ELISA microplate reader (Multimode Plate Reader, EnSight, purchased from Perkin Elmer).

[3] = target: T2, human CD19 exon1-3-His tag protein; experiment: ELISA, coated human CD19 exon 1-3-His
[4] = target: T3, human CD19 on Raji cells; experiment: FACS on Raji cells
Procedure: (§1) After the digestion was terminated, the cells were washed 2 times with a PBS buffer; and for suspension cell Raji, the supernatant of the medium was discarded by directly centrifugation, and the cell pellet was washed 2 times with PBS. After counting the cells in the previous step, the cell pellet was resuspended with [PBS+2% (w/w) BSA] blocking solution to 2×10⁶ cells/ml, and added to a 96-well FACS reaction plate at 50 μl/well, and then the sample to be tested was added at 50 μl/well, and incubated on ice for 2 h. The obtained mixture was centrifuged and washed 3 times with a PBS buffer. […] The obtained mixture was centrifuged and washed 5 times with a PBS buffer, and FACS (FACS Canto™, purchased from BD Company) was used for detection and result analysis. Data analysis was performed by software (FlowJo) to obtain the mean fluorescence intensity (MFI) of the cells. And then software (GraphPad Prism8) was used for analysis, data fitting, and EC50 value calculation. […] The same method was used to detect the binding of the chimeric antibodies to endogenous CD19-negative cells, MoLT4 cells (purchased from ATCC, CRL-1582), and CHO-K1 cells.

[5] = target: T1, Human CD19-his protein; experiment: ELISA on coated human CD19-His
[6] = target: T4, human CD19 on CHO-K1-human CD19 cells; experiment: FACS on CHO-K1-human CD19 cells
Procedure: as §1

Row | Binder | Kd [1] | koff [1] | kon [1] | OD450 at 0.0001 nM [2] | OD450 at 0.001 nM [2] | OD450 at 0.01 nM [2] | OD450 at 0.10 nM [2] | OD450 at 1.00 nM [2] | OD450 at 10 nM [2] | OD450 at 100 nM [2] | OD450 at 0.0001 nM [3] | OD450 at 0.001 nM [3] | OD450 at 0.01 nM [3] | OD450 at 0.10 nM [3] | OD450 at 1.00 nM [3] | OD450 at 10 nM [3] | OD450 at 100 nM [3] | EC50 [4] | Maximum mean fluorescence intensity [4] | EC50 (read off the curve) [5] | also measured
1 | B1 | 0.00058 nM | 6.84e-08 s⁻¹ | 118000 M⁻¹ s⁻¹ | 0.1 OD450 | 0.13 OD450 | 0.39 OD450 | 1.7 OD450 | 2.68 OD450 | 2.58 OD450 | 3 OD450 | 0.05 OD450 | 0.05 OD450 | 0.05 OD450 | 0.05 OD450 | 0.05 OD450 | 0.06 OD450 | 0.09 OD450 | 0.43 nM | 31700 MFI | ~0.05 nM | EC50 [6]: 1.23 nM; Maximum mean fluorescence intensity [6]: 54200 MFI
2 | B2 | 0.00502 nM | 6.17e-07 s⁻¹ | 123000 M⁻¹ s⁻¹ | 0.1 OD450 | 0.14 OD450 | 0.42 OD450 | 1.61 OD450 | 2.55 OD450 | 2.49 OD450 | 3.09 OD450 | 0.05 OD450 | 0.05 OD450 | 0.05 OD450 | 0.05 OD450 | 0.05 OD450 | 0.05 OD450 | 0.09 OD450 | 0.46 nM | 32000 MFI | ~0.05 nM | EC50 [6]: 1.1 nM; Maximum mean fluorescence intensity [6]: 54400 MFI
